# From patent US20260209362A1 (VIB VZW, published 2026)
# Numbering of substitutions follows the chain as printed.
# T1: mouse IL-12Rβ2 expressed on cells (mouse, UniProt P97378 24-874)
# T1 construct: HEK293T cells, stably transduced (cDNA NM_008354); also called mIL-12RB2
# T1 sequence: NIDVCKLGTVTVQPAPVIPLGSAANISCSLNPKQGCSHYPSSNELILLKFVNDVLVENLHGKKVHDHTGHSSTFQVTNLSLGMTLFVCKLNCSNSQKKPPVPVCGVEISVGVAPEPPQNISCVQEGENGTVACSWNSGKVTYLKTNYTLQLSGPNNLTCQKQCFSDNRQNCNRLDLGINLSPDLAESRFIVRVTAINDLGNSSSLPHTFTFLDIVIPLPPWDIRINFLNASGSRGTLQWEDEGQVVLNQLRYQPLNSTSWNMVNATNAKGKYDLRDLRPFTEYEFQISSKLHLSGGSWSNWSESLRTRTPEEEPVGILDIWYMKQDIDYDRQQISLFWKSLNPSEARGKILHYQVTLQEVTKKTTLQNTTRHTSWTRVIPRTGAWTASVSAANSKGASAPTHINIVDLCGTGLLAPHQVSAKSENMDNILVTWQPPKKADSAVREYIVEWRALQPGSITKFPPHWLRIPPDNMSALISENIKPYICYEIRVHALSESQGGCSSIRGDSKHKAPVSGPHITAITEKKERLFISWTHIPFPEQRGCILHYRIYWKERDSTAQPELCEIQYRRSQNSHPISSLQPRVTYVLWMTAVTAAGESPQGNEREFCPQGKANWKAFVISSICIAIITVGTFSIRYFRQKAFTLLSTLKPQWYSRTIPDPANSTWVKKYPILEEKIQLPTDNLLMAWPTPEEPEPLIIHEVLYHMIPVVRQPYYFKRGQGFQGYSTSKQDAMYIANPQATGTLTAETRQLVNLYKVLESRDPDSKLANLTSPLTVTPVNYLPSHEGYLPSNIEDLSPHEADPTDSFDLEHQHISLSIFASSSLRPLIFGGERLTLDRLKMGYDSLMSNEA
# T2: biotinylated recombinant mouse IL-12Rβ2 (mouse, UniProt P97378 24-637, random biotinylated)
# T2 construct: Recombinant protein produced in-house, biotinylated; also called mIL-12RB2; mouse IL-12RB2
# T2 sequence: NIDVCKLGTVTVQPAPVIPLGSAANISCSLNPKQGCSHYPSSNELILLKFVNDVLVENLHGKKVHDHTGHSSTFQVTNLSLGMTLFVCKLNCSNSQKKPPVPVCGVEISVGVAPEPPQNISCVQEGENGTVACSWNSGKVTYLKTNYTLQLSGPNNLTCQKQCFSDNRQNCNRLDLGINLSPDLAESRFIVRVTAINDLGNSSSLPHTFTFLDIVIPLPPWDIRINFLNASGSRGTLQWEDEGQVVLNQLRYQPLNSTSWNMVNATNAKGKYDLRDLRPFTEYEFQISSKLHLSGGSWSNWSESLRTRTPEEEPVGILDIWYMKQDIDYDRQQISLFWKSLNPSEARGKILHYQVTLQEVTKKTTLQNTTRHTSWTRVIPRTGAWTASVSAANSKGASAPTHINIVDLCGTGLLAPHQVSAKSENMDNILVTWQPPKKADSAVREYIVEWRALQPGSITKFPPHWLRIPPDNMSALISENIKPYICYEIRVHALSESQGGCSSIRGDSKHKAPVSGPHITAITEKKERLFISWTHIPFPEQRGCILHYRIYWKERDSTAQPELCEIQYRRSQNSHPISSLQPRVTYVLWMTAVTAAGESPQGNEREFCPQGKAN
# T3: biotinylated recombinant human IL-12Rβ2 (human, UniProt Q99665 24-622, random biotinylated)
# T3 construct: Recombinant protein produced in-house, biotinylated; also called hIL-12RB2; human IL-12RB2
# T3 sequence: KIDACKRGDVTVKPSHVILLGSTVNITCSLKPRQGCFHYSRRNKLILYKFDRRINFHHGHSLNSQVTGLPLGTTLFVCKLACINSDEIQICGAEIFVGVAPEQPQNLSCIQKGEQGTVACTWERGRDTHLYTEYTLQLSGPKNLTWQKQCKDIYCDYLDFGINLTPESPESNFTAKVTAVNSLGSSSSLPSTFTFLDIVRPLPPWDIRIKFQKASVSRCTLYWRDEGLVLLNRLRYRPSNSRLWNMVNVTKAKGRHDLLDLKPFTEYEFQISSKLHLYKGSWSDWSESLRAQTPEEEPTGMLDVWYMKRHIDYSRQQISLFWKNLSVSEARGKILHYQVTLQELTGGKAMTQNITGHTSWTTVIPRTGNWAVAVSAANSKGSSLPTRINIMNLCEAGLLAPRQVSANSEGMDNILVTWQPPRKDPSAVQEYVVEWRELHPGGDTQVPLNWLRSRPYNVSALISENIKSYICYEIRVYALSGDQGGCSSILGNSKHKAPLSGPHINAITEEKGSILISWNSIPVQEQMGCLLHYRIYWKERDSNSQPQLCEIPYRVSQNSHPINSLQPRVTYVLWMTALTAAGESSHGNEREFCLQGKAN
# B1: anti-IL-12Rβ2 VHH clone 3CRH83 (VHH, not shown: small tags and cut ends)
# VHH: QVQLQESGGGLVQAGGSLKLSCAASGNTFSINAMAWYRQAPGQELELVAAISDVGNTIYADSMKGRFTISRGNADNTVYLQMNSLKPEDTATYYCNAGTFYTSPGDSYYRGYDFWGQGTQVTVSS
# notes: tested as periplasmic extract
# B2: anti-IL-12Rβ2 VHH clone 2CRM28 (VHH, not shown: small tags and cut ends)
# VHH: QVQLQESGGGLVQPGGSLRLSCAASGRAWNEYNMGWFRQAPGKEREFVALIWWSSGNTYYADSVKGRFTISRDKVKNTVYLQMNSLKPEDTAVYYCAAGPTFNKYEYWGQGTQVTVSS
# notes: tested as periplasmic extract
# B3: anti-IL-12Rβ2 VHH clone 2CRM40 (VHH, not shown: small tags and cut ends)
# VHH: QVQLQESGGGLVQTGGSLRLSCAASGRTYAMAWFRQAPGKEREFAAVIIGGDRTYYANSVKDRFTISRDNAKETVYLQMNNLKPEDTAVYYCAANRRLYNSGRGYSQSEYEYWGQGTQVTVSS
# notes: tested as periplasmic extract; also called 20448
# B4: anti-IL-12Rβ2 VHH clone 2CRM42 (VHH, not shown: small tags and cut ends)
# VHH: QVQLQESGGGLVQPGESLRLSCQASGRTFSNYRMGWFRQAPGKEREFVAGINWDGGHTYYTDSVKGRFTISRDNAKNTVYLQMNSLKPEDTAVYQCAVRVREYGSSRYEDQFDYWGQGTQVTVSS
# notes: tested as periplasmic extract; also called 20449
# B5: anti-IL-12Rβ2 VHH clone 2CRM83 (VHH, not shown: small tags and cut ends)
# VHH: QVQLQESGGGLVQPGGSLRLSCAASGFTFSAYAMSWVRQAPGKGLEWVSSISSTGTNPNYADSVKGRFTISRDNAKNTLYLQMNSLKPEDTAVYYCAEAYRNYSPPGQGTQVTVSS
# notes: tested as periplasmic extract; also called 20451
# B6: anti-IL-12Rβ2 VHH clone 3CRM45 (VHH, not shown: small tags and cut ends)
# VHH: QVQLQESGGGLVQAGGSLRLSCTASGSIFAIDDMYWYRQAPGKEREFVAYITATNSANYLDSVNGRFTISRDNAKNSVYLQMNSLKPEDTAVYYCNAKQIVGFQIDEYWGQGTQVTVSS
# notes: tested as periplasmic extract; also called 20458
# B7: anti-IL-12Rβ2 VHH clone 3CRM95 (VHH, not shown: small tags and cut ends)
# VHH: QVQLQESGGGLVQAGDFLRLSCVFSGGTFGDYSMGWFRQAPGKEREFVAAIRWSGDSTQYAEAVKGRFTISRDNAKSTVYLQMSSLKPEDTAVYYCAADPSYYIGPNHTPSRYRDWGQGTQVTVSS
# notes: tested as periplasmic extract; also called 20465
# B8: anti-IL-12Rβ2 VHH clone 2CAM18 (VHH)
# VHH: QVQLQESGGGLVQVGDSLKLSCVASGTTFSTHVMAWYRQAPGKQREWVASIDSAGTTNYKDAVKGRFTISRDNVKRTVYLQMNNLKPEDSAVYLCSIPSRNAWGQGTQVTVSS
# notes: tested as periplasmic extract; also called 20475
# B9: anti-IL-12Rβ2 VHH clone 2CAM39 (VHH, not shown: small tags and cut ends)
# VHH: QVQLQESGGGLVQAGGSLRLSCAASGRTFSTYAMGWFRQAPGKEREFVAAISWSGGSTYYADSVKGRFTISRDNAKNTGYLQMNSLKPEDTAVYVCAADAEDPILYGSSWNNRRKEYDYWGQGTQVTVSS
# notes: tested as periplasmic extract; also called 20482
# B10: anti-IL-12Rβ2 VHH clone 2CAM45 (VHH, not shown: small tags and cut ends)
# VHH: QVQLQESGGGLVQAGGSLRLSCAASGFTFDDYAIGWFRQAPGKEREGISCISSSDYGTYYAGSVKGRFTISSDNAKNTVYLQMNSLKPEDTAVYYCAAEAISEYDCLGINYGMDYWGKGTQVTVSS
# notes: tested as periplasmic extract; also called 20485
# B11: anti-IL-12Rβ2 VHH clone 2CAM62 (VHH, not shown: small tags and cut ends)
# VHH: QVQLQESGGGLVQAEGSLRLSCVASGRTFSSYGMGWFRQAPGKEREFVTGISSAGSWIGDITSYADSVKGRFTISRDNAKNILYLQMNSLKPEDTAVYYCAAAYHGSRYYVGSTANEYTTWGQGTQVTVSS
# notes: tested as periplasmic extract; also called 20493
# B12: anti-IL-12Rβ2 VHH clone 2CAM67 (VHH, not shown: small tags and cut ends)
# VHH: QVQLQESGGGEVQAGGSLRLSCVASGRTFSVYTTGWFRQAPGKEREFVAGMSGTRTYYADSVKGRFTISRDNAKNTVYLQMNSLKPDDTAVYYCAERRYGGPSLVWDEYDYRGQGTQVTVSS
# notes: tested as periplasmic extract; also called 20494
# B13: anti-IL-12Rβ2 VHH clone 2CAM71 (VHH, not shown: small tags and cut ends)
# VHH: QVQLQESGGGLVQAGGSLRLSCAASGRTLSNSVMGWFRQAPGKEREFVAALMWSAGSEFYTDSVKGRFSISGDGAKNTVYLQMNSLKAEDTAVYYCAAKNPPHRWSDIGKSPHYEYWGQGTQVTVSS
# notes: tested as periplasmic extract
# B14: anti-IL-12Rβ2 VHH clone 2CAM88 (VHH, not shown: small tags and cut ends)
# VHH: QVQLQESGGGLVPPGDSLRLSCAASGRTFSSYTMGWFRQAPGKEREFVARISQDGGSTYYADSMKGRFTVARDNAKNTVYLQMNSLKPEDTAVYYCAADMIKWGLRVGVDSFKYWGQGTQVTVSS
# notes: tested as periplasmic extract
# B15: anti-IL-12Rβ2 VHH clone 3CAM10 (VHH, not shown: small tags and cut ends)
# VHH: QVQLQESGGGLVQAGGSLRLSCAASGRTFSDYPMAWFRQAPGKEREFVAGISNGGTAYYADSVKGRFTISRDNTRNTVYLQMNRLKVEDTAVYYCAAVHLLSNLRGADPHEADYWGQGTQVTVSS
# notes: tested as periplasmic extract; also called 20507
# B16: anti-IL-12Rβ2 VHH clone 20489 (VHH, not shown: small tags and cut ends)
# VHH: QVQLQESGGGLVQPGGPLRLSCAPSGRTFSTLAMAWFRQAPGKEREVVATISWSGGRTYYADSVKGRFTISRDNAKNTAFLQMNSLRPDDTAVYYCAARESDYGSYDYWGQGTQVTVSS
# notes: tested as periplasmic extract; also called 2CAM50
# B17: anti-IL-12Rβ2 VHH clone 20512 (VHH, not shown: small tags and cut ends)
# VHH: B16 VHH with P14A, P17S, A23T, A35G, D62S, G66S, F80Y, E100G, S101T, S105A
# notes: tested as periplasmic extract; also called 3CAM57
# B18: anti-IL-12Rβ2 VHH clone 20555 (VHH, not shown: small tags and cut ends)
# VHH: B16 VHH with P14A, P17S, A35G, D73N, F80Y, S85N, S101T, S105A
# notes: tested as periplasmic extract; also called 3CAMS81
# B19: anti-IL-12Rβ2 VHH clone 20506 (VHH, not shown: small tags and cut ends)
# VHH: QVQLQESGGGLVQVGGSLRLSCAPSGRTFSTYAMGWFRQALGKEREVVATISWSGGRIYYTDSVKGRFTISRDNAKNTAYLQMNSLRPDDADVYYCATRGTDYGAWEYWGQGTQVTVSS
# notes: tested as periplasmic extract; also called 3CAM6
# B20: anti-IL-12Rβ2 VHH clone 20473 (VHH, not shown: small tags and cut ends)
# VHH: B14 VHH with P13Q, P14A
# notes: tested as periplasmic extract; also called 2CAM14
# What was measured:
# [1] = biological target: T1, mouse IL-12Rβ2 expressed on cells; experiment: flow cytometry, P.E. VHH on HEK293T cells stably expressing mIL-12RB2
# [2] = biological target: T2, biotinylated recombinant mouse IL-12Rβ2; experiment: ELISA, periplasmic extract on biotinylated mIL-12Rβ2, signal over control wells
# [3] = biological target: T3, biotinylated recombinant human IL-12Rβ2; experiment: ELISA, periplasmic extract on biotinylated hIL-12Rβ2, signal over control wells
Binder,% cells bound [1] [%],dMFI [1],ELISA binding mIL-12RB2/control [2] [ratio],ELISA binding hIL-12RB2/control [3] [ratio]
B1,3.47,21,,
B2,19.5,100,,
B3,32.8,166,,
B4,2.93,22,,
B5,24.9,122,,
B6,18.3,110,,
B7,6.74,51,,
B8,3.19,13.6,,
B9,48.7,255,,
B10,6.77,51,,
B11,11.2,70,,
B12,13.5,90,,
B13,58.3,322,,
B14,14.8,93,,
B15,41.7,212,,
B16,,,7.88,0.995
B17,,,47.4,1.31
B18,,,9.41,1.06
B19,,,19.9,0.97
B20,,,36.3,0.971
